{
  "source": "patent US20250382352A1",
  "about": "(SCG CELL THERAPY PTE, published 2025)",
  "binders": {"B1": {"name": "BsAb2-6-001 (bispecific antibody)", "heavy": "not shown", "light": "QTVVTQEPSLTVSPGGTVTLTCRSSTGAVTTSNYANWVQQKPGQAPRALIGGTNKRAPWTPARFSGSLLGDKAALTLSGVQPEDEAEYYCALWYSNLWVFGGGTKLTVLRTVAAPSVFIFPPSDEQLKSGTASVVCLLNNFYPREAKVQWKVDNALQSGNSQESVTEQDSKDSTYSLSSTLTLSKADYEKHKVYACEVTHQGLSSPVTKSFNRGEC", "notes": "also called VH1VL1; SCG2-6-001"}, "B2": {"name": "BsAb2-6-011 (bispecific antibody)", "heavy": "not shown", "light": "B1 light", "notes": "also called VH3VL1; SCG2-6-011"}, "B3": {"name": "BsAb2-6-016 (bispecific antibody)", "heavy": "not shown", "light": "B1 light", "notes": "also called VH4VL1; SCG2-6-016"}, "B4": {"name": "BsAb2-5-013 (bispecific antibody)", "heavy": "not shown", "light": "B1 light with T2A, A48G, W59G, Y89F", "notes": "also called VH3VL3"}, "B5": {"name": "BsAb2-6-006 (bispecific antibody)", "heavy": "not shown", "light": "B1 light", "notes": "also called VH2VL1; SCG2-6-006"}, "B6": {"name": "BsAb2-5-018 (bispecific antibody)", "heavy": "not shown", "light": "B1 light with T2A, A48G, W59G, Y89F", "notes": "also called VH4VL3"}, "B7": {"name": "BsAb2-6-026 (bispecific antibody)", "heavy": "not shown", "light": "B1 light", "notes": "also called VH6VL1; SCG2-6-026"}, "B8": {"name": "BsAb2-6-017 (bispecific antibody)", "heavy": "not shown", "light": "B1 light with A48G, W59G", "notes": "also called VH4VL2; SCG2-6-017"}, "B9": {"name": "BsAb2-5-012 (bispecific antibody)", "heavy": "not shown", "light": "B1 light with A48G, W59G", "notes": "also called VH3VL2"}, "B10": {"name": "BsAb2-6-021 (bispecific antibody)", "heavy": "not shown", "light": "B1 light", "notes": "also called VH5VL1; SCG2-6-021"}, "B11": {"name": "BsAb2-5-011 (bispecific antibody)", "heavy": "not shown", "light": "B1 light", "notes": "also called VH3VL1; SCG2-5-011"}, "B12": {"name": "BsAb2-6-018 (bispecific antibody)", "heavy": "not shown", "light": "B1 light with T2A, A48G, W59G, Y89F", "notes": "also called VH4VL3"}, "B13": {"name": "BsAb2-6-015 (bispecific antibody)", "heavy": "not shown", "light": "QTVVTQEPSFSVSPGGTVTLTCRSSTGAVTTSNYANWVQQTPGQAPRGLIGGTNKRAPGVPDRFSGSILGDKAALTITGAQADDESDYYCALWYSNLWVFGGGTKLTVLRTVAAPSVFIFPPSDEQLKSGTASVVCLLNNFYPREAKVQWKVDNALQSGNSQESVTEQDSKDSTYSLSSTLTLSKADYEKHKVYACEVTHQGLSSPVTKSFNRGEC", "notes": "also called VH3VL5"}, "B14": {"name": "BsAb2-6-020 (bispecific antibody)", "heavy": "not shown", "light": "B13 light", "notes": "also called VH4VL5"}, "B15": {"name": "BsAb2-6 (C8 scFv fused to the C-terminus of the heavy chain of the murine anti-CD3 Ab via a linker) (bispecific antibody)", "chain 1": "not shown", "chain 2": "QAVVTQESALTTSPGETVTLTCRSSTGAVTTSNYANWVQEKPDHLFTGLIGGTNKRAPGVPARFSGSLIGDKAALTITGAQTEDEAIYFCALWYSNLWVFGGGTKLTVLRTVAAPSVFIFPPSDEQLKSGTASVVCLLNNFYPREAKVQWKVDNALQSGNSQESVTEQDSKDSTYSLSSTLTLSKADYEKHKVYACEVTHQGLSSPVTKSFNRGEC"}, "B16": {"name": "BsAb2-5 (C8 scFv fused to the N-terminal of the heavy chain of the murine anti-CD3 mAb) (bispecific antibody)", "chain 1": "not shown", "chain 2": "B15 chain 2"}},
  "note": "Numbering of substitutions follows the chain as printed.",
  "data": [
    {"biological_target": "T1, HBsAg recombinant protein (hepatitis B virus)", "T1 chain": "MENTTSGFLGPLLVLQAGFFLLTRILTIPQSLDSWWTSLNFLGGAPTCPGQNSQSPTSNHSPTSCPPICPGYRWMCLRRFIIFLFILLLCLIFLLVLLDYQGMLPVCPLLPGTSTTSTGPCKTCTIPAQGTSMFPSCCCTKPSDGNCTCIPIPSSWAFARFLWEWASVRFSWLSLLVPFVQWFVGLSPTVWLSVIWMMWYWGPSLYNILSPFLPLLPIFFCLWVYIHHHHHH", "assay": "ELISA, recombinant protein", "description": "(§1) Anti-HBsAg/anti-CD3 bispecific antibodies generated in Example 1 are analyzed by standard ELISA techniques for their binding properties to HBsAg, human CD3E, and rhesus CD3ε recombinant protein, respectively.", "units": {"EC50": "nM"}, "values": [
      {"binder": "B1", "EC50": 0.5},
      {"binder": "B2", "EC50": 0.44},
      {"binder": "B3", "EC50": 0.71},
      {"binder": "B4", "EC50": 0.17},
      {"binder": "B5", "EC50": 0.31},
      {"binder": "B6", "EC50": 0.12},
      {"binder": "B7", "EC50": 0.69},
      {"binder": "B8", "EC50": 0.6},
      {"binder": "B9", "EC50": 0.16},
      {"binder": "B10", "EC50": 0.8},
      {"binder": "B11", "EC50": 0.2},
      {"binder": "B12", "EC50": 0.73},
      {"binder": "B13", "EC50": 0.33},
      {"binder": "B14", "EC50": 0.56}
    ]},
    {"biological_target": "T2, human CD3ε recombinant protein (human, UniProt P07766 23-126)", "T2 construct": "also called human CD3E; huCD3ε", "T2 sequence (P07766 23-126 limits assumed)": "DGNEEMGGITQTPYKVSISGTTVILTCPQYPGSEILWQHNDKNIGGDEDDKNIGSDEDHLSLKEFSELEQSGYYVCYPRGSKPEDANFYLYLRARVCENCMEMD", "assay": "ELISA, recombinant protein", "description": "as §1", "units": {"EC50": "nM"}, "values": [
      {"binder": "B2", "EC50": 0.66},
      {"binder": "B3", "EC50": 0.8},
      {"binder": "B4", "EC50": 0.33},
      {"binder": "B6", "EC50": 0.33},
      {"binder": "B8", "EC50": 0.4},
      {"binder": "B9", "EC50": 0.32},
      {"binder": "B11", "EC50": 1.85},
      {"binder": "B12", "EC50": 0.5},
      {"binder": "B13", "EC50": 0.19},
      {"binder": "B14", "EC50": 0.32}
    ]},
    {"biological_target": "T3, rhesus CD3ε recombinant protein (rhesus)", "T3 construct": "also called rhesus CD38 [sic]", "assay": "ELISA, recombinant protein", "description": "as §1", "units": {"EC50": "nM"}, "values": [
      {"binder": "B1", "EC50": 0.29},
      {"binder": "B2", "EC50": 0.34},
      {"binder": "B3", "EC50": 0.36},
      {"binder": "B4", "EC50": 0.26},
      {"binder": "B5", "EC50": 0.76},
      {"binder": "B6", "EC50": 0.24},
      {"binder": "B7", "EC50": 0.63},
      {"binder": "B8", "EC50": 0.15},
      {"binder": "B9", "EC50": 0.24},
      {"binder": "B10", "EC50": 0.83},
      {"binder": "B11", "EC50": 1.99},
      {"binder": "B12", "EC50": 0.16},
      {"binder": "B13", "EC50": 0.18},
      {"binder": "B14", "EC50": 0.12}
    ]},
    {"biological_target": "T1, HBsAg recombinant protein", "assay": "ELISA, recombinant HBsAg", "units": {"EC50 (read off the curve)": "nM"}, "values": [
      {"binder": "B15", "EC50 (read off the curve)": "~0.2"}
    ]},
    {"biological_target": "T1, HBsAg recombinant protein", "assay": "ELISA, recombinant HBsAg", "remark": "another data set of the same source", "units": {"EC50 (read off the curve)": "nM"}, "values": [
      {"binder": "B15", "EC50 (read off the curve)": "~0.3"}
    ]},
    {"biological_target": "T2, human CD3ε recombinant protein", "assay": "ELISA, recombinant human CD3ε", "units": {"EC50 (read off the curve)": "nM"}, "values": [
      {"binder": "B15", "EC50 (read off the curve)": "0.1 to 0.2"}
    ]},
    {"biological_target": "T2, human CD3ε recombinant protein", "assay": "ELISA, recombinant human CD3ε", "remark": "another data set of the same source", "units": {"EC50 (read off the curve)": "nM"}, "values": [
      {"binder": "B15", "EC50 (read off the curve)": "~0.3"}
    ]},
    {"biological_target": "T3, rhesus CD3ε recombinant protein", "assay": "ELISA, recombinant rhesus CD3ε", "units": {"EC50 (read off the curve)": "nM"}, "values": [
      {"binder": "B15", "EC50 (read off the curve)": "~0.07"}
    ]},
    {"biological_target": "T3, rhesus CD3ε recombinant protein", "assay": "ELISA, recombinant rhesus CD3ε", "remark": "another data set of the same source", "units": {"EC50 (read off the curve)": "nM"}, "values": [
      {"binder": "B15", "EC50 (read off the curve)": "~0.07"}
    ]},
    {"biological_target": "T1, HBsAg recombinant protein", "assay": "SPR (Biacore), bsAb on protein A chip, antigen in flow", "description": "(§2) Binding affinity of anti-HBsAg/anti-CD3 constructs to HBsAg and human/cynomolgus CD3ε is characterized by SPR using Biacore […] (GE Healthcare). Specifically, the anti-HBsAg/anti-CD3 bispecific antibodies were immobilized on protein A chip at a flow rate of 10 μL/min, and gradient dilution of huCD3ε, cynoCD3ε, or HBsAg antigen was used as the mobile phase. The binding condition was 10 μL/min×180 s. The dissociation condition was 10 μL/min×400 s and the regeneration conditions were 30 μL/min×30 s at pH1.5 Gly. FIG. 10 and FIG. 11 show the kinetic curves of bsAb-2-5 and bsAb-2-6 constructs bind to human and cynomolgus CD3 recombinant proteins, respectively. FIG. 12 show the kinetic curves of bsAb2-5 and bsAb2-6 constructs bind to HBsAg.", "units": {"Kd": "nM"}, "values": [
      {"binder": "B1", "Kd": 0.0491},
      {"binder": "B2", "Kd": 0.375},
      {"binder": "B3", "Kd": 0.054},
      {"binder": "B5", "Kd": 0.00116},
      {"binder": "B7", "Kd": 0.623},
      {"binder": "B8", "Kd": 0.0321},
      {"binder": "B10", "Kd": 0.348},
      {"binder": "B11", "Kd": 0.0932}
    ]},
    {"biological_target": "T2, human CD3ε recombinant protein", "assay": "SPR (Biacore), bsAb on protein A chip, antigen in flow", "description": "as §2", "units": {"Kd": "nM"}, "values": [
      {"binder": "B2", "Kd": 29.2},
      {"binder": "B3", "Kd": 35.3},
      {"binder": "B8", "Kd": 0.851},
      {"binder": "B11", "Kd": 12.4}
    ]},
    {"biological_target": "T4, cynomolgus CD3ε recombinant protein (cynomolgus, UniProt Q95LI5 22-117)", "T4 construct": "also called cynoCD3ε; cynomolgus CD38 [sic]", "T4 sequence (looked up)": "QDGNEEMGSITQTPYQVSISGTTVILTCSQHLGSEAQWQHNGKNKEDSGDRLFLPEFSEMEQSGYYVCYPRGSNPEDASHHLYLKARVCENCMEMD", "assay": "SPR (Biacore), bsAb on protein A chip, antigen in flow", "description": "as §2", "units": {"Kd": "nM"}, "values": [
      {"binder": "B3", "Kd": 36},
      {"binder": "B5", "Kd": 9.23},
      {"binder": "B7", "Kd": 97.4},
      {"binder": "B8", "Kd": 0.737},
      {"binder": "B10", "Kd": 148}
    ]},
    {"biological_target": "T5, CD3ε expressed on the surface of Jurkat cells (human, UniProt P07766 23-207)", "T5 construct": "whole, on cells; also called CD3 expressed on human leukemic T cell line Jurkat; hCD3ε", "T5 sequence (P07766 23-207)": "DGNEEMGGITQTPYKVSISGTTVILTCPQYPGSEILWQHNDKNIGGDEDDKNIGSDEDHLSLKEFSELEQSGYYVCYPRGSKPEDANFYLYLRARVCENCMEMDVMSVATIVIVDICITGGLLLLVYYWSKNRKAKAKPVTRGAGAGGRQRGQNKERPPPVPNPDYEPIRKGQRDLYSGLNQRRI", "assay": "flow cytometry on Jurkat cells (panel title: Binding with CD3+ T cell), MFI", "units": {"EC50 (read off the curve)": "nM"}, "values": [
      {"binder": "B16", "EC50 (read off the curve)": "~0.05"}
    ]}
  ]
}
